Laboratory results published in patent publication US20190241662A1 (ADAGENE, published 2019).
Positions count from the first letter of the chain named. Read-outs that look alike come from different tables or passages of the source.

Tests used:
[1] = target: T1, recombinant human CTLA4-Fc (human, UniProt P16410 36-162); assay: ELISA; EC50 divided by the EC50 of TY21580
T1 construct: also called human CTLA4 fused with human FC fragment; CTLA4-Fc (Sino Biological, 11159-H03H)
T1 sequence (looked up): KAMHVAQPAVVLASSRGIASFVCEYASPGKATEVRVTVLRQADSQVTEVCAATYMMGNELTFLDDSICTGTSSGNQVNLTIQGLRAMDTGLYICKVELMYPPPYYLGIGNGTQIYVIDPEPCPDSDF
Procedure: (§1) Plates were blocked with PBS supplemented with 3% non-fat milk at 37° C. for 1 hour. After washing, 100 μL of 3-fold serial dilutions of antibodies were added to each well. After incubation at 37° C. for 1 hour, plates were washed four times, and 100 μL HRP conjugated anti-human IgG (Fab specific) (1:6000 dilution) was added to each well. Plates were incubated at 37° C. for 1 hour, washed four times, and then 50 μL TMB substrate solution was added to each well, and the plate was incubated at room temperature. […] The EC₅₀ was evaluated by fitting the ELISA data using the asymmetrical sigmoidal (five-parameter logistic equation) model of GraphPad Prism 6 software.

[2] = target: T1, recombinant human CTLA4-Fc; assay: ELISA, coated human CTLA4-Fc (as in Example 8)
Procedure: as §1

[3] = target: T1, recombinant human CTLA4-Fc; assay: ELISA; EC50 divided by the EC50 of TY21580; remark: listed apart in the source
Procedure: as §1

[4] = target: T1, recombinant human CTLA4-Fc; assay: ELISA, coated human CTLA4-Fc (as in Example 8); remark: listed apart in the source
Procedure: as §1

[5] = target: T1, recombinant human CTLA4-Fc; assay: ELISA on plate-coated recombinant human CTLA4-Fc, detection with HRP anti-human IgG (Fab specific)
Procedure: as §1

[6] = target: T2, full-length human CTLA4 expressed on cells (human, UniProt P16410 36-223); assay: flow cytometry blocking: HEK293F cells with human CTLA4, 100 nM antibody, then 100 nM CD80-Fc-Bio (blocked ligand); PBSA panel: Mean 157692, 26.3%
T2 construct: whole, on cells; also called HEK293F/hCTLA-4 cells; HEK293F/hCTLA4 cells
T2 sequence (looked up): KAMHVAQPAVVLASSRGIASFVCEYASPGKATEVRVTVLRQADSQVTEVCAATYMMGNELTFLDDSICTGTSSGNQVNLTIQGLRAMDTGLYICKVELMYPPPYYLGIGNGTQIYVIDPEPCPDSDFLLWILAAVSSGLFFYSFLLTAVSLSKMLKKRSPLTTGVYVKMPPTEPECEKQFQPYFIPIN
Procedure: (§2) Antibodies were also tested for their ability to block binding of CTLA4 to its cognate ligands CD80 and CD86 by flow cytometry. The plasmid encoding full-length human CTLA4 was transiently expressed in HEK293F cells. Cells were washed with staining buffer (PBSA buffer including 1.76 mM KH₂PO₄, 10.14 mM Na₂HPO₄.12H₂O, 2.68 mM KCl, 136.89 mM NaCl and 1% BSA), and resuspended in staining buffer containing 100 nM test antibodies. […] Cells were washed once, and analyzed by CytoFlex flow cytometry.

[7] = target: T2, full-length human CTLA4 expressed on …; assay: flow cytometry blocking: HEK293F cells with human CTLA4, 100 nM antibody, then 100 nM CD86-Fc-Bio (blocked ligand); PBSA panel: Mean 10678, 12.2%
Procedure: as §2

[8] = target: T2, full-length human CTLA4 expressed on …; assay: flow cytometry, transfected HEK293F cells, antibody concentration not given
Procedure: (§3) The affinities of the antibodies were also assessed against human and mouse CTLA4 transiently expressed on the surface of HEK293F cells (FIG. 2). Briefly, HEK293F cells were transfected with a plasmid expressing full-length human, monkey or mouse CTLA4 from a bicistronic IRES vector also encoding EGFP, and EGFP expression was used to identify the transfected cells. After 48 hours, the mammalian cell suspension (2×10⁵/well) was transferred to an Eppendorf tube, centrifuged, the supernatant was discarded, the cells were resuspended with 1 mL PBSA (to a density is 4×10⁶ cells/mL), and added to a 96 well plate. […] The cells were then washed once prior to analysis by flow cytometry (Beckman® CytoFlex).

[9] = target: T3, recombinant human CTLA4 fused with human Fc and His tag (human, UniProt P16410 36-162, limits assumed); assay: competition ELISA: plate-bound human CTLA4-Fc-His, biotinylated CD80 as blocked ligand
T3 construct: Coated in the CD80 ELISA, biotinylated and in solution in the CD86 ELISA; also called biotinylated human CTLA4 fused with human FC and His tag
T3 sequence (looked up): T1 sequence (looked up)
Procedure: Antibodies were then tested for their ability to block binding of CTLA4 to its cognate ligands CD80 and CD86 by ELISA. […] Plates were blocked with PBS supplemented with 2% (w/v) skim milk at 37° C. for 1 hour. […] Plates were washed four times, and 100 μL HRP-neutravidin (1:1000) was added to each well and incubated at 37° C. for 1 hour. Plates were washed as previously described, and 50 μL TMB substrate solution was added and incubated at room temperature for 5 minutes before the reaction was stopped by 50 μL sulfate acid (2M).

[10] = target: T4, full-length mouse CTLA4 expressed on HEK293F cells (mouse, UniProt P09793 36-223); assay: flow cytometry, transfected HEK293F cells [Cont.]
T4 construct: whole, on cells
Procedure: as §3

[11] = target: T2, full-length human CTLA4 expressed on …; assay: flow cytometry, transfected HEK293F cells, antibody concentration not printed [Cont.]
Procedure: as §3

[12] = target: T4, full-length mouse CTLA4 expressed on …; assay: as above
Procedure: as §3

human CD80 = target: T5, human CD80 (human, UniProt P33681 35-242, limits assumed); assay: yeast-display flow cytometry, Normalized FACS Bound
T5 construct: constructs not described; also called biotinylated CD80; CD80-Fc-Bio
T5 sequence (looked up): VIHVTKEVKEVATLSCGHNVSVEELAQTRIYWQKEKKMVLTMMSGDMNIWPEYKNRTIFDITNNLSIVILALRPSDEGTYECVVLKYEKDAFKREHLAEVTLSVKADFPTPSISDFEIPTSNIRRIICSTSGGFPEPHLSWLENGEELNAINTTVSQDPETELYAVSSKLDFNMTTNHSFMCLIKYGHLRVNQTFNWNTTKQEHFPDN

human CD86 = target: T6, human CD86 (human, UniProt P42081 24-247, limits assumed); assay: as above
T6 construct: constructs not described; also called recombinant human CD86 fused with human Fc; CD86-Fc-Bio
T6 sequence (looked up): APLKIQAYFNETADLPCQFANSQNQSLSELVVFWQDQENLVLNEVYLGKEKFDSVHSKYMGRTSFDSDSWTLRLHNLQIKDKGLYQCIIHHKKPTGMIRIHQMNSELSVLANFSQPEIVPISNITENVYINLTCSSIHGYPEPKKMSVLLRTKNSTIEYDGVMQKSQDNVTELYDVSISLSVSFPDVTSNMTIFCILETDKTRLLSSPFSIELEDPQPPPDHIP

mouse CD86 = target: T7, mouse CD86 (mouse, UniProt P42082 24-244, limits assumed); assay: as above
T7 sequence (looked up): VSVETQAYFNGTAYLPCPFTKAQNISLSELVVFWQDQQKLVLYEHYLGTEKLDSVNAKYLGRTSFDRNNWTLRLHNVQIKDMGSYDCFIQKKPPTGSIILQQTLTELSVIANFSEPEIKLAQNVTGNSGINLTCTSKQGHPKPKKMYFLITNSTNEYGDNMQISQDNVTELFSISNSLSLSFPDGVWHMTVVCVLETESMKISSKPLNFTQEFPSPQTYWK

B1: TY22402 (antibody, IgG1, V domains shown)
VH: EVQLVESGGGLVQPGGSLRLSCAASGYSISSGYHWSWIRQAPGKGLEWLARIDWDDDKYYSTSLKSRLTISRDNSKNTLYLQLNSLRAEDTAVYYCARSYVYFDYWGQGTLVTVSS
VL: EVGSYIVHHSDCDAFYPYCDSSGRSAGGGGSPLGLAGSGGSDIQLTQSPSSLSASVGDRVTITCRASQSVRGRFLAWYQQKPGKAPKLLIYDASNRATGIPSRFSGSGSGTDFTLTISSLQPEDFATYYCQQSSSWPPTFGQGTKVEIKR
notes: IgG1; peptide fused to the N-terminus of the light chain of TY21580
masking efficiency [1]: 554
EC50 [2]: 54 nM
masking efficiency [3]: 243
EC50 [4]: 116 nM

B2: TY22864 (antibody, V domains shown)
VH: B1 VH
VL: DIQLTQSPSSLSASVGDRVTITCRASQSVRGRFLAWYQQKPGKAPKLLIYDASNRATGIPSRFSGSGSGTDFTLTISSLQPEDFATYYCQQSSSWPPTFGQGTKVEIKR
EC50 [4]: 117 nM

B3: TY22566 (antibody, IgG1, V domains shown)
VH: B1 VH
VL: EVGSYPNPASDCVPYYYACAYSGRSAGGGGSPLGLAGSGGSDIQLTQSPSSLSASVGDRVTITCRASQSVRGRFLAWYQQKPGKAPKLLIYDASNRATGIPSRFSGSGSGTDFTLTISSLQPEDFATYYCQQSSSWPPTFGQGTKVEIKR
notes: IgG1
EC50 (read off the curve) [5]: ~200 nM

B4: TY22871 (antibody, V domains shown)
VH: B1 VH
VL: B2 VL
EC50 [4]: 88.1 nM

B5: TY22563 (antibody, IgG1, V domains shown)
VH: B1 VH
VL: B1 VL with I6Y, V7S, H8A, H9Y, S10P, D11A, A14S, F15H, D20Q
notes: IgG1
EC50 (read off the curve) [5]: ~60 nM

B6: TY21587 (antibody, V domains shown)
VH: EVQLVESGGGLVQPGGSLRLSCAASGFTFSDYGIHWVRQAPGKGLEWIGEIYHSGSTYYSPSLKSRVTISRDNSKNTLYLQLNSLRAEDTAVYYCARDVAPGSSGYYDGFDFWGQGTLVTVSS
VL: DIQLTQSPSSLSASVGDRVTITCRASQGIGSSLAWYQQKPGKAPKLLIYDASNRATGIPSRFSGSGSGTDFTLTISSLQPEDFATYYCQQYDQWPPWTFGQGTKVEIK
notes: human IgG1 (hIgG1) from Fab hit B15722
% of cells in upper right quadrant (CD80-positive) in the presence of the antibody [6]: 25.8%
Mean of the CD80 binding signal in the presence of the antibody [6]: 85700
% of cells in upper right quadrant (CD86-positive) in the presence of the antibody [7]: 6.59%
Mean of the CD86 binding signal in the presence of the antibody [7]: 5710
% of cells in upper right quadrant (Q2) [8]: 23.6%
IC50 (read off the curve) [9]: ~30 nM

B7: TY21589 (antibody, V domains shown)
VH: EVQLVESGGGLVQPGGSLRLSCAASGFTFSDYWIHWVRQAPGKGLEWIGWISPSGGGTKYAQKFQGRVTISRDNSKNTLYLQLNSLRAEDTAVYYCARGAYEFDYWGQGTLVTVSS
VL: DIQLTQSPSSLSASVGDRVTITCRASQSVSSRFLAWYQQKPGKAPKLLIYDASNRATGIPSRFSGSGSGTDFTLTISSLQPEDFATYYCQQSYPTPLTFGQGTKVEIK
notes: human IgG1 (hIgG1) from Fab hit B15740
binding result [10]: no binding (tested: not printed on the sheet)
% of cells in upper right quadrant (CD80-positive) in the presence of the antibody [6]: 27.5%
Mean of the CD80 binding signal in the presence of the antibody [6]: 110000
% of cells in upper right quadrant (CD86-positive) in the presence of the antibody [7]: 0.55%
Mean of the CD86 binding signal in the presence of the antibody [7]: 6660
% of cells in upper right quadrant (Q2) [11]: 29.7%
% of cells in upper right quadrant (Q2) [12]: 1.36%

B8: human CTLA4 mutant ADSQVT42TNDQMT displayed on yeast (receptor)
chain: KAMHVAQPAVVLASSRGIASFVCEYASPGKATEVRVTVLRQTNDQMTEVCAATYMMGNELTFLDDSICTGTSSGNQVNLTIQGLRAMDTGLYICKVELMYPPPYYLGIGNGTQIYVIDPE
notes: also called human CC' loop motif changed to the mouse motif
binding result (human CD80): binds
binding result (human CD86): binds
binding result (mouse CD86): binds

B9: human CTLA4 mutant LGI106AAA displayed on yeast (receptor)
chain: B8 chain with T42A, N43D, D44S, M46V, L106A, G107A, I108A
binding result (human CD80): binds
binding result (human CD86): binds
binding result (mouse CD86): binds

B10: YLGIG105FVGMG (receptor, Homo sapiens, UniProt P16410 36-161, looked up)
CTLA4: KAMHVAQPAVVLASSRGIASFVCEYASPGKATEVRVTVLRQADSQVTEVCAATYMMGNELTFLDDSICTGTSSGNQVNLTIQGLRAMDTGLYICKVELMYPPPYFVGMGNGTQIYVIDPEPCPDSD
binding result (human CD80): binds
binding result (human CD86): binds
binding result (mouse CD86): binds
